Source: patent US20230134571A1 (INTERNATIONAL AIDS VACCINE INITIATIVE, published 2023)

Key:
Experiment in all cases: cell-based or functional assay
[1] = target: HIV Env, isolate 6244_13_B5_4576 (HIV)
[2] = target: HIV Env, isolate QH0692.42 (HIV)
[3] = target: HIV Env, isolate TRJO4551.58 (HIV)
HIV Env, isolate TRO.11 = HIV Env, isolate TRO.11 (HIV)
HIV Env, isolate CNE17 = HIV Env, isolate CNE17 (HIV)
HIV Env, isolate CNE30 = HIV Env, isolate CNE30 (HIV)
[4] = target: HIV Env, isolate Ce0682_E4 (HIV)
[5] = target: HIV Env, isolate Ce1172_H1 (HIV)
[6] = target: HIV Env, isolate Du156.12 (HIV)
[7] = target: HIV Env, isolate HIV-0013095-2.11 (HIV)
[8] = target: HIV Env, isolate 89-F1_2_25 (HIV)
[9] = target: HIV Env, isolate 231965.c01 (HIV)
[10] = target: HIV Env, isolate A07412M1.vrc12 (HIV)
[11] = target: HIV Env, isolate P0402_C2_11 (HIV)

B1: PGDM1400 (antibody, V domains shown)
VH: QVHLTQSGPEVRKPGTSVKVSCKAPGNTLKTYDLHWVRSVPGQGLQWMGWISHEGDKKVIVERFKAKVTIDWDRSTNTAYLQLSGLTSGDTAVYYCAKGSKHRLRDYALYDDDGALNWAVDVDYLSNLEFWGQGTAVTVSS
VL: DFVLTQSPHSLSVTPGESASISCKSSHSLIHGDRNNYLAWYVQKPGRSPQLLIYLASSRASGVPDRFSGSGSDKDFTLKISRVETEDVGTYYCMQGRESPWTFGQGTKVDIK
Q: With B1 as the binder, how does the “IC80 (µg/ml) with constrains” value [1] read?
A: > 100 µg/mL

Q: And the “IC80 (µg/ml) with constrains” value [2]?
A: > 100 µg/mL

Q: What about the “IC80 (µg/ml) with constrains” value [3] of the same binder?
A: > 100 µg/mL

Q: And the “IC80 (µg/ml) with constrains” value (HIV Env, isolate TRO.11)?
A: 0.823 µg/mL

Q: And the “IC80 (µg/ml) with constrains” value (HIV Env, isolate CNE17)?
A: 0.018 µg/mL

Q: What about the “IC80 (µg/ml) with constrains” value (HIV Env, isolate CNE30) of the same binder?
A: > 100 µg/mL

Q: What about the “IC80 (µg/ml) with constrains” value [4] of the same binder?
A: 0.037 µg/mL

Q: What about the “IC80 (µg/ml) with constrains” value [5] of the same binder?
A: 0.872 µg/mL

Q: What about the “IC80 (µg/ml) with constrains” value [6] of the same binder?
A: 0.025 µg/mL

Q: And the “IC80 (µg/ml) with constrains” value [7]?
A: > 100 µg/mL

Q: And the “IC80 (µg/ml) with constrains” value [8]?
A: 0.013 µg/mL

Q: What about the “IC80 (µg/ml) with constrains” value [9] of the same binder?
A: 0.242 µg/mL

Q: And the “IC80 (µg/ml) with constrains” value [10]?
A: 0.115 µg/mL

Q: What about the “IC80 (µg/ml) with constrains” value [11] of the same binder?
A: 0.027 µg/mL
